For 1 substance, Kd, koff and kon results are on record in patent US20200031927A1.

pKd: −log10 of the molar value.

The pKd is the Kd on a negative log10 scale, so that one unit is a factor of ten. Low values mean a high Kd, high ones a low Kd. As usually defined, the koff is the first-order rate constant of dissociation. Usually kon stands for the rate constant with which the complex forms. A higher kon goes with faster complex formation.

Test [1] deals with soluble KIR3DL1*001-Fc (human) (UniProt P43629). Description: SPR (BIACORE T-100). For orientation: In SPR one partner is held on a chip, and binding of the other changes the refractive index at the surface.
In test [2] the target is soluble KIR3DL1*002-Fc (human) (UniProt P43629). Kind of test: SPR (BIACORE T-100).
soluble KIR3DL1*002-Fc (human), sequence (P43629 other isoform, or with tags, fused parts or gaps): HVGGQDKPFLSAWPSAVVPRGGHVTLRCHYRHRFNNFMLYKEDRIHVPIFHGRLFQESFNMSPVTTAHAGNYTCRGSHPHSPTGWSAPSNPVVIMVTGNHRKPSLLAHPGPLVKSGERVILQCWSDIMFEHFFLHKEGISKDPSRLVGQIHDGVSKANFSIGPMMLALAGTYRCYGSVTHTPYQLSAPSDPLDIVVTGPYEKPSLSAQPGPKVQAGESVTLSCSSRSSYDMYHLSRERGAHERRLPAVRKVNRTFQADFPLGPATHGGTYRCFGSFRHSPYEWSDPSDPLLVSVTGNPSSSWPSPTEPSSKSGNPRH
The target of test [3] is soluble KIR3DL1*033-Fc (human) (UniProt P43629). Kind of test: SPR (BIACORE T-100).
soluble KIR3DL1*033-Fc (human), sequence (P43629 other isoform, or with tags, fused parts or gaps): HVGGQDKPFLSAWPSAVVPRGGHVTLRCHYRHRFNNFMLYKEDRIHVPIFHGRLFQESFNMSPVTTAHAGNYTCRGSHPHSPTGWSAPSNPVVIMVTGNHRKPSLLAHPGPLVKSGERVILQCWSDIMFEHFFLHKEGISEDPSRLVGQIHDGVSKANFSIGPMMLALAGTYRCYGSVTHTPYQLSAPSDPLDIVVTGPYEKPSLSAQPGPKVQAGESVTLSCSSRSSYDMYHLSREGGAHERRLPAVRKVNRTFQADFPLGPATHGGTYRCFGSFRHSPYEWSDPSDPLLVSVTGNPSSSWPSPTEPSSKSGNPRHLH
The target of test [4] is soluble KIR3DL1*002-Fc (human) (UniProt P43629). Kind of test: SPR (BIACORE T-100), kinetics.

Regarding DX9 (PHB4385) (antibody), the pKd in test [1] is 7.85; in test [2], 7.51; in test [3], 8.07; in test [4] it was 7.51. Further, the koff in test [4] amounted to 0.000992 s⁻¹. This substance also came in with a kon in test [4] of 32400 M⁻¹ s⁻¹.
